{"source": "paper PMC4851618", "about": "“Structural dynamics of a methionine γ-lyase for calicheamicin biosynthesis: Rotation of the conserved tyrosine stacking with pyridoxal phosphate” (Structural Dynamics, 2016)", "molecular_target": "the molecule itself", "test": "crystal structure; sitting drop, 11 mg/ml protein with 1 mM PLP, 12% w/v PEG 20000, 0.1 M MES pH 6.5, 289 K; SAD, 2.10 Å, space group I222; quaternary assembly calculated by PISA", "data": [{"protein": "CalE6, PLP-dependent methionine γ-lyase from Micromonospora echinospora (D7G variant, selenomethionine labeled) (enzyme, UniProt Q8KNG3 1-381, looked up, selenomethionine in place of methionine; Lys 197 bound covalently to PLP (Schiff base, residue LLP 197), The printed fusion scheme (ENLYFQ/SNA-TARGET) leaves SNA before the protein after TEV cleavage; The forward primer begins the target with GTG (AGC GGT ATG CGC TTC GAC follow), so the first residue behind SNA may be Val, not Met; Crystallised with 1 mM PLP; also called CalE6-MES complex; CalE6 holoenzyme; source: E. coli BL21(DE3), selenomethionine labeled, purified (Ni-NTA, TEV cleavage, …)) MSGMRFGTRLVHGGRRPSAGTGDVVPPIHVSTTYERRAQDEPRYFYGRGENPTREELEECLAGLERAPFATVFSSGQAAAATLLSLVRPGQCVVSTDDVYAGTDGLFDLAARQGVRVRYADLTTPEGIAAALAEPDLALVWIETPTNPLLTVVDVAEVSRRAHERGARVVVDNTFASPVLQQPLALGADVSLYSTTKSIAGHADVLGGALVYRDADLHAAVRAYRTTAGNVPGALDCFLVRRGLHTLSLRVHRQVATARVLVERLRASPVVGAVHYPGLPEHPQHAVVKAQMSAPGAIVSFDYLGGPAERLLDRFTLFTCGVSLGGVHSLVECPALMTHRPLSAEARARRGIGESLIRLSVGIEDPQDLAEDLSRALAGGT", "values": [{"measurement": "stoichiometry N", "result": 4}]}]}
